In PMC8509203, “Members of the GADD45 Protein Family Show Distinct Propensities to form Toxic Amyloid-Like Aggregates in Physiological Conditions” (International Journal of Molecular Sciences, 2021):
Values belong to the molecule of their own block, whether it stands above or below them.

How the values were obtained:
[1] = biological target: MKK7 kinase domain (Homo sapiens) (UniProt O14733); assay: SPR; conditions: cited from earlier work
[2] = biological target: T1, kinase domain of human MKK7 (mitogen-activated protein kinase kinase 7) (human, UniProt O14733 120-380); assay: BLI; biotinylated GADD45 proteins immobilised on super streptavidin (SSA) biosensors (2.5 nm), Octet RED96; MKK7_KD in solution at 9-300 nM; 0.01 M HEPES pH 7.4, 0.15 M NaCl, 3 mM EDTA, 0.005% Surfactant P20, 2 mM DTT; 1:1 binding model; conditions: both partners purified
T1 construct: MKK7, human, kinase domain; also called MKK7_KD; source: recombinant, obtained as His-fusion protein as previously reported
T1 sequence (looked up): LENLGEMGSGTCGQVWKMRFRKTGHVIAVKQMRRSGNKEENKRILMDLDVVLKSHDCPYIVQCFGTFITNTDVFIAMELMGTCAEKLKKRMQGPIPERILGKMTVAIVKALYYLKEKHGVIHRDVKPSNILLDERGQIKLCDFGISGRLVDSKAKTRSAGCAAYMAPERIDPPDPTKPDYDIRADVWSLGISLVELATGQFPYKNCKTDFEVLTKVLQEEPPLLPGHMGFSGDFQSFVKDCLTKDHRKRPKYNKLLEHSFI

[3] = biological target: the molecule itself; assay: SEC-MALS; SEC-LS, Superdex S200 10/30 with miniDAWN TREOS; 0.5-1.0 mg loaded; 20 mM Tris-HCl pH 7.5, 100 mM NaCl, 5 mM DTT, 5% glycerol (the results and the legend name only 5 mM DTT in 20 mM Tris-HCl pH 7.5); oligomeric state of the native protein

Molecule: GADD45β (from UniProt O75293)
- Kd [1]: 6 nM

- Kd [2]: 2 nM
B1: GADD45β (growth arrest and DNA damage-inducible 45 beta) (natural protein, human, UniProt O75293 1-160, looked up)
chain: MTLEELVACDNAAQKMQTVTAAVEELLVAAQRQDRLTVGVYESAKLMNVDPDSVVLCLLAIDEEEEDDIALQIHFTLIQSFCCDNDINIVRVSGMQRLAQLLGEPAETQGTTEARDLHCLLVTNPHTDAWKSHGLVEVASYCEESRGNNQWVPYISLQER
modifications: biotin (EZ-Link Sulfo-NHS-LC-Biotinylation Kit), in the BLI experiment only
notes: GADD45β, human; cloned into pET-28a+ as previously reported; Monomeric by SEC-LS; The same construct was used without biotin in SEC-LS and biotinylated in BLI; also called Human GADD45β; source: E. coli BL21(DE3), purified (Ni2+-NTA, Superdex 200 SEC)

B2: GADD45γ (growth arrest and DNA damage-inducible 45 gamma) (natural protein, human, UniProt O95257 1-159, looked up)
chain: MTLEEVRGQDTVPESTARMQGAGKALHELLLSAQRQGCLTAGVYESAKVLNVDPDNVTFCVLAAGEEDEGDIALQIHFTLIQAFCCENDIDIVRVGDVQRLAAIVGAGEEAGAPGDLHCILISNPNEDAWKDPALEKLSLFCEESRSVNDWVPSITLPE
modifications: biotin (EZ-Link Sulfo-NHS-LC-Biotinylation Kit), in the BLI experiment only
notes: GADD45γ, human; gene purchased from Sigma Aldrich, cloned into pETM-13 with BamHI and XhoI; Dimeric by SEC-LS; The same construct was used without biotin in SEC-LS and biotinylated in BLI; source: E. coli BL21(DE3), purified (Ni2+-NTA, Superdex 200 SEC)
- stoichiometry N [3]: 2
